The source of these data is patent US12466890.

This experiment has as its target TL1A monomer mutant. The experiment is described as follows: method not stated (row 'Binds monomer mutant').

pKd: −log10 of the molar value.

With Comparator antibody 2 (MK-7240), the pKd (as a rule, −log10 of the Kd, conventionally taken in molar units) is 9.89.
